± gives the standard deviation of the averaged measurements.
How the values were obtained:
Saccharomyces cerevisiae [1] = test: protein stability index of tFT-peptide fusion (C-terminal peptide) (PSI (0-1 scale)); higher = more stable (slower turnover)
Procedure: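 MPS profiling in S. cerevisiae of the tFT-X12 degron library: putative degron peptides plus stable controls, 12 aa, fused to the C-terminus of a sfGFP-mCherry timer. Cells are FACS-sorted into 8 mCherry/sfGFP bins and deep-sequenced. PSI runs from 0 (unstable) to 1 (stable). Backgrounds are wild type, das1Δ and doa10Δ at 30 °C, and wild type, das1Δ, cdc34-1 and cdc53-1 at 37 °C; 2-3 technical replicates each.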

Saccharomyces cerevisiae [2] = test: as above; conditions: genetic background: wild type; temperature: 30 C
[3] = genetic background: cdc34-1, temperature: 37 C
[4] = genetic background: cdc53-1, temperature: 37 C
[5] = genetic background: das1 deletion, temperature: 30 C
[6] = genetic background: das1 deletion, temperature: 37 C
[7] = genetic background: doa10 deletion, temperature: 30 C
[8] = genetic background: wild type, temperature: 30 C
[9] = genetic background: wild type, temperature: 37 C
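Note: PSI is a weighted mean of sequencing reads over stability bins, variants kept only with over 10 reads, mCherry proximal and sfGFP distal, peptide attached via GGGS linker.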

Sequence	protein stability index (Saccharomyces cerevisiae [1]; [3])	protein stability index (Saccharomyces cerevisiae [1]; [4])	protein stability index (Saccharomyces cerevisiae [1]; [5])	protein stability index (Saccharomyces cerevisiae [1]; [6])	protein stability index (Saccharomyces cerevisiae [1]; [7])	protein stability index (Saccharomyces cerevisiae [1]; [8])	protein stability index (Saccharomyces cerevisiae [1]; [9])	protein stability index (Saccharomyces cerevisiae [2])
VVQCRFPTPCVV	0.486 ± 0.035	0.485 ± 0.033	0.372 ± 0.03	0.5335 ± 0.0022	0.349 ± 0.0096	0.376 ± 0.027	0.496 ± 0.022	0.476 ± 0.013
VVSLGGWCLYIY	0.423 ± 0.061	0.4605 ± 0.0016	0.416 ± 0.032	0.461 ± 0.012	0.385 ± 0.023	0.333 ± 0.019	0.416 ± 0.0093	0.412 ± 0.025
VVVFGWIGYLYL	0.366 ± 0.028	0.499 ± 0.05	0.311 ± 0.044	0.511 ± 0.021	0.282 ± 0.019	0.288 ± 0.044	0.482 ± 0.062	0.327 ± 0.071
VVVHFVLVCSTS	0.0899 ± 0.0074	0.237 ± 0.057	0.141 ± 0.026	0.284 ± 0.0084	0.116 ± 0.011	0.13 ± 0.024	0.271 ± 0.014	0.289 ± 0.038
VWFLLFVVWCGS	0.212 ± 0.01	0.282 ± 0.024	0.217 ± 0.022	0.384 ± 0.0055	0.186 ± 0.021	0.204 ± 0.034	0.316 ± 0.0071	0.309 ± 0.031
VWLAWCIVGGLG	0.472 ± 0.0083	0.5494 ± 0.0026	0.386 ± 0.024	0.5441 ± 0.0026	0.352 ± 0.015	0.369 ± 0.028	0.523 ± 0.0062	0.428 ± 0.03
VWVAWLGGAILA	0.149 ± 0.021	0.188 ± 0.012	0.2 ± 0.029	0.29 ± 0.0052	0.174 ± 0.024	0.194 ± 0.022	0.272 ± 0.0045	0.267 ± 0.021
VYCCVRSLRVAI	0.553 ± 0.0082	0.677 ± 0.047	0.471 ± 0.035	0.6347 ± 0.0019	0.395 ± 0.022	0.428 ± 0.023	0.5746 ± 0.0014	0.496 ± 0.0097
VYVRYYVRVVVI	0.0256 ± 0.0012	0.0406 ± 0.00046	0.0781 ± 0.04	0.167 ± 0.024	0.0369 ± 0.0049	0.046 ± 0.016	0.0659 ± 0.0096	0.115 ± 0.012
WCFFFVGCCCFG	0.557 ± 0.044	0.59 ± 0.03	0.462 ± 0.034	0.5249 ± 0.004	0.479 ± 0.0084	0.481 ± 0.031	0.537 ± 0.013	0.479 ± 0.0056
WCFGSLLIRFSL	0.416 ± 0.057	0.446 ± 0.016	0.453 ± 0.04	0.5548 ± 0.0037	0.5049 ± 0.00066	0.411 ± 0.0096	0.516 ± 0.013	0.458 ± 0.024
WDLYFSVVYRVV	0.35 ± 0.04	0.484 ± 0.017	0.403 ± 0.015	0.491 ± 0.017	0.0435 ± 0.021	0.0544 ± 0.0073	0.093 ± 0.0024	0.114 ± 0.0017

Source: the supplement of paper PMC10724198
